{
  "source": "patent US20240254223A1",
  "about": "(NOVIMMUNE, published 2024)",
  "key": {"[1]": {"target": "T1, high affinity trimeric IL-2R (IL-2Rα, IL-2Rβ and IL-2Rγ) on HEK-Blue IL-2 cells (UniProt P01589 22-272; P14784 27-551; P31785 23-369)", "T1 sequence (looked up) 1": "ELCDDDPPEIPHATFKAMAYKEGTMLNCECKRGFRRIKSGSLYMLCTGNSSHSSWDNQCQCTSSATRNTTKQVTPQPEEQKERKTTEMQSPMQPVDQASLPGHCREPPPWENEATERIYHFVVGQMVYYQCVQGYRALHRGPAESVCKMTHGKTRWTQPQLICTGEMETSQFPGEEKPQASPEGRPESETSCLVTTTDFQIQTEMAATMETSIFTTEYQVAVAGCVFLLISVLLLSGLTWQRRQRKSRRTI", "T1 sequence (looked up) 2": "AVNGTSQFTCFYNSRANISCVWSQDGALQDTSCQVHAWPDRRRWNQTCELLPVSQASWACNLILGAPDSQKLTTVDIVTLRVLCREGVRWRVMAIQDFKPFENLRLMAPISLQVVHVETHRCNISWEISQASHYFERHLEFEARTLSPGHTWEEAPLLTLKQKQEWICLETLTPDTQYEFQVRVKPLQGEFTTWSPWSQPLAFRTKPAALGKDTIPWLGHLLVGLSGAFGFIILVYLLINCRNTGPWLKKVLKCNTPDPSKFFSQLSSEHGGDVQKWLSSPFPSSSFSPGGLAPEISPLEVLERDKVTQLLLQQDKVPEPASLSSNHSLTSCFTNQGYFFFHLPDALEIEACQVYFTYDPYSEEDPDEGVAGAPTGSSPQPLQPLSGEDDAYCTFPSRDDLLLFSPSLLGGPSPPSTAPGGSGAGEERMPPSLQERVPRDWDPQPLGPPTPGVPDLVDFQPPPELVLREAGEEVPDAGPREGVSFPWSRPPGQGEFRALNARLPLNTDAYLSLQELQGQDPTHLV", "T1 sequence (looked up) 3": "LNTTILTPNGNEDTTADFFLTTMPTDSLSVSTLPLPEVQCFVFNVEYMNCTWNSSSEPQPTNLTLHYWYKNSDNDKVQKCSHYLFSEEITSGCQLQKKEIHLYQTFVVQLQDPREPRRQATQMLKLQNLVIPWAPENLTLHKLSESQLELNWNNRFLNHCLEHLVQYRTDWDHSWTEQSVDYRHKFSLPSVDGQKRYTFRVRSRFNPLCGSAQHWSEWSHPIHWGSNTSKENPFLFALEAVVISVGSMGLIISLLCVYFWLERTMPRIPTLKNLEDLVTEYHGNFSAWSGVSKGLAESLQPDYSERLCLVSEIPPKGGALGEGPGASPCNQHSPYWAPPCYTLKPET", "experiment": "cell-based or functional assay"}, "[2]": {"target": "T2, low-moderate affinity dimeric IL-2R (IL-2Rβ and IL-2Rγ) on HEK-Blue CD122/CD132 cells (UniProt P14784 27-551; P31785 23-369, limits assumed)", "T2 sequence (looked up) 1": "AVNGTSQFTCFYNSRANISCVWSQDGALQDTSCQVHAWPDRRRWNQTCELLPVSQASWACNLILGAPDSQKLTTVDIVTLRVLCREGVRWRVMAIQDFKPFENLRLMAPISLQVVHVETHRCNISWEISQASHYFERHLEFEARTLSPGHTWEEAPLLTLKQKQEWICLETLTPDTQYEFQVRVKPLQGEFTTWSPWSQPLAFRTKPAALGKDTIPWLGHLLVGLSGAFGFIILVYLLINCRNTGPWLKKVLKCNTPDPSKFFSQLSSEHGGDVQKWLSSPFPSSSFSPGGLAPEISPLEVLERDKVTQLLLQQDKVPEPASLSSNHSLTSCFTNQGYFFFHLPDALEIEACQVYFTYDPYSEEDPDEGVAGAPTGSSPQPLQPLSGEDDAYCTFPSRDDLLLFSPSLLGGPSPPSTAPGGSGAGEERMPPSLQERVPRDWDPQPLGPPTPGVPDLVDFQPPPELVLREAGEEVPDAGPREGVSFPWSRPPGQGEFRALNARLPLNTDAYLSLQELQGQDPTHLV", "T2 sequence (looked up) 2": "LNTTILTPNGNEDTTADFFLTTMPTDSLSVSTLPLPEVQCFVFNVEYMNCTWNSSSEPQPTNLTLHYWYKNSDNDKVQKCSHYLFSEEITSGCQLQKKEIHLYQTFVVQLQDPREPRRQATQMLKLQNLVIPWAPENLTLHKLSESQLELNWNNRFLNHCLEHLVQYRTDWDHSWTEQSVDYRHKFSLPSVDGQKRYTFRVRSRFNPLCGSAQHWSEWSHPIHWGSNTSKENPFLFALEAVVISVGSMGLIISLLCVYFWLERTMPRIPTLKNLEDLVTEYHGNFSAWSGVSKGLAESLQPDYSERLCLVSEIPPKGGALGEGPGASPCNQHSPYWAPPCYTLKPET", "experiment": "cell-based or functional assay"}, "[3]": {"target": "T3, CD47 at the surface of Peak cells (human, UniProt Q08722 19-323)", "T3 construct": "whole, on cells; also called cell surface CD47", "experiment": "flow cytometry, Peak cells, after MMP-9 treatment", "procedure": "Binding activity of antibody-cytokine/receptor fusions before and after cleavage was also evaluated by flow cytometry. Peak cells derived from HEK 293 which are human cells expressing CD47 were used to evaluate masking efficacy and binding recovery to CD47 by flow cytometry. Peak cells were diluted in cold FACS buffer (PBS, 2% BSA) to 1.2×10⁶ cells/mL. 3×10⁵ cells/well were added in a 96 well V-bottom plate. The plate was then centrifugated for 5 min at 1300 rpm, 4° C. Supernatants were removed and cells were washed twice using FACS buffer. A serial dilution of antibody-cytokine/receptor fusions previously digested with MMP-9 or not digested as described above was prepared in FACS buffer. An irrelevant antibody was included. Then, 150 μL of each diluted antibody were added in corresponding well and incubated for 30 min at 4° C. Cells were washed twice with FACS buffer and 100 μL of a mouse anti human Fc-PE conjugated secondary antibody were added and the plate was incubated for 20 min at 4° C. Cells were then washed twice with FACS buffer. Finally, 150 μL of SYTOX blue dead cell stain (ThermoFisher) diluted to 1/5000 in FACS buffer were added before detection by flow cytometry with Cytoflex (Beckman Coulter). Acquisition was performed with 10000 events for each well. Data were analyzed by FlowJo software."}},
  "data": [
    {"binder": "Construct No 690 after cleavage by MMP-9 (antibody, MMP-9 digest of m24; the sample also holds the released IL-2Rα and IL-2; also called n690 after cleavage; not shown: remnant of CM1 and linker after MMP-9 cleavage) light: DIQMTQSPSSLSASVGDRVTITCNVDQVIANWLNWYQQKPGKAPKLLIYAASSLQSGVPSRFSGSGSGTDFTLTISSLQPEDFATYYCQQMHPRAPKQFGQGTKVEIKRTVAAPSVFIFPPSDEQLKSGTASVVCLLNNFYPREAKVQWKVDNALQSGNSQESVTEQDSKDSTYSLSSTLTLSKADYEKHKVYACEVTHQGLSSPVTKSFNRGEC heavy: not shown", "values": [
      {"measurement": "EC50 after cleavage IL-2, HEK Blue IL-2 αβγ reporter assay", "setting": "[1]", "value": 0.07, "unit": "nM"},
      {"measurement": "EC50 after cleavage IL-2, HEK Blue IL-2 βγ reporter assay", "setting": "[2]", "value": 0.03, "unit": "nM"},
      {"measurement": "EC50", "setting": "[3]", "value": 0.4, "unit": "nM"}
    ]},
    {"binder": "Construct No 291 after cleavage by MMP-9 (antibody) chain 1: DIQMTQSPSSLSASVGDRVTITCNVDQVIANWLNWYQQKPGKAPKLLIYAASSLQSGVPSRFSGSGSGTDFTLTISSLQPEDFATYYCQQMHPRAPKQFGQGTKVEIKRTVAAPSVFIFPPSDEQLKSGTASVVCLLNNFYPREAKVQWKVDNALQSGNSQESVTEQDSKDSTYSLSSTLTLSKADYEKHKVYACEVTHQGLSSPVTKSFNRGEC chain 2: not shown", "values": [
      {"measurement": "EC50 after cleavage IL-2, HEK Blue IL-2 αβγ reporter assay", "setting": "[1]", "value": 0.01, "unit": "nM"},
      {"measurement": "EC50", "setting": "[3]", "value": 0.4, "unit": "nM"}
    ]},
    {"binder": "Construct No 450 after cleavage by MMP-9 (antibody, MMP-9 digest of m16; the sample also holds the released IL-2, IL-2Rα and IL-2Rβ; also called n450 after cleavage; not shown: remnant of CM1 and linker after MMP-9 cleavage) light: DIQMTQSPSSLSASVGDRVTITCNVDQVIANWLNWYQQKPGKAPKLLIYAASSLQSGVPSRFSGSGSGTDFTLTISSLQPEDFATYYCQQMHPRAPKQFGQGTKVEIKRTVAAPSVFIFPPSDEQLKSGTASVVCLLNNFYPREAKVQWKVDNALQSGNSQESVTEQDSKDSTYSLSSTLTLSKADYEKHKVYACEVTHQGLSSPVTKSFNRGEC heavy: not shown", "values": [
      {"measurement": "EC50 after cleavage IL-2, HEK Blue IL-2 αβγ reporter assay", "setting": "[1]", "value": 0.01, "unit": "nM"},
      {"measurement": "EC50", "setting": "[3]", "value": 0.4, "unit": "nM"}
    ]},
    {"binder": "Construct No 471 after cleavage by MMP-9 (antibody, MMP-9 digest of m17; the sample also holds the released IL-2, IL-2Rα and IL-2Rβ; also called n471 after cleavage; not shown: remnant of CM1 and linker after MMP-9 cleavage) light: DIQMTQSPSSLSASVGDRVTITCNVDQVIANWLNWYQQKPGKAPKLLIYAASSLQSGVPSRFSGSGSGTDFTLTISSLQPEDFATYYCQQMHPRAPKQFGQGTKVEIKRTVAAPSVFIFPPSDEQLKSGTASVVCLLNNFYPREAKVQWKVDNALQSGNSQESVTEQDSKDSTYSLSSTLTLSKADYEKHKVYACEVTHQGLSSPVTKSFNRGEC heavy: not shown", "values": [
      {"measurement": "EC50 after cleavage IL-2, HEK Blue IL-2 αβγ reporter assay", "setting": "[1]", "value": 0.01, "unit": "nM"},
      {"measurement": "EC50", "setting": "[3]", "value": 0.3, "unit": "nM"}
    ]},
    {"binder": "Construct No 2 after cleavage by MMP-9 (antibody, MMP-9 digest of m3; the sample also holds the released IL-2; also called n2 after cleavage; not shown: remnant of CM1 and linker after MMP-9 cleavage) light: DIQMTQSPSSLSASVGDRVTITCNVDQVIANWLNWYQQKPGKAPKLLIYAASSLQSGVPSRFSGSGSGTDFTLTISSLQPEDFATYYCQQMHPRAPKQFGQGTKVEIKRTVAAPSVFIFPPSDEQLKSGTASVVCLLNNFYPREAKVQWKVDNALQSGNSQESVTEQDSKDSTYSLSSTLTLSKADYEKHKVYACEVTHQGLSSPVTKSFNRGEC heavy: not shown", "values": [
      {"measurement": "EC50 after cleavage IL-2, HEK Blue IL-2 αβγ reporter assay", "setting": "[1]", "value": 0.11, "unit": "nM"},
      {"measurement": "EC50 after cleavage IL-2, HEK Blue IL-2 βγ reporter assay", "setting": "[2]", "value": 0.09, "unit": "nM"},
      {"measurement": "EC50", "setting": "[3]", "value": 0.4, "unit": "nM"}
    ]},
    {"binder": "Construct No 530 after cleavage by MMP-9 (antibody, MMP-9 digest of m18; the sample also holds the released IL-2, IL-2Rα and IL-2Rβ; also called n530 after cleavage; not shown: remnant of CM1 and linker after MMP-9 cleavage) light: DIQMTQSPSSLSASVGDRVTITCNVDQVIANWLNWYQQKPGKAPKLLIYAASSLQSGVPSRFSGSGSGTDFTLTISSLQPEDFATYYCQQMHPRAPKQFGQGTKVEIKRTVAAPSVFIFPPSDEQLKSGTASVVCLLNNFYPREAKVQWKVDNALQSGNSQESVTEQDSKDSTYSLSSTLTLSKADYEKHKVYACEVTHQGLSSPVTKSFNRGEC heavy: not shown", "values": [
      {"measurement": "EC50 after cleavage IL-2, HEK Blue IL-2 αβγ reporter assay", "setting": "[1]", "value": 0.01, "unit": "nM"},
      {"measurement": "EC50", "setting": "[3]", "value": 0.4, "unit": "nM"}
    ]}
  ]
}
